Data on one molecule can be found in patent US20220389097A1 (Genentech, published 2022).

Assay [1] has as its target T1, human TREM2 on cells (human, UniProt Q9NZC2 19-230).
T1 sequence: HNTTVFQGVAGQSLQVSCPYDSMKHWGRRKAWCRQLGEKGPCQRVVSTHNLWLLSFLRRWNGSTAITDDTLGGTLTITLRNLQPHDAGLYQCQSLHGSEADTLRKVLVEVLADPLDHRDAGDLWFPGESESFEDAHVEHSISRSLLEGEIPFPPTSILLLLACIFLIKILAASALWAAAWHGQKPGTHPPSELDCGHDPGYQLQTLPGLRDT
Put plainly: cell-based or functional assay.

Assay [2] has as its target T2, soluble monomeric human TREM2 (human, UniProt Q9NZC2 19-174, limits assumed).
T2 construct: Not the same as shed sTREM2; also called soluble monomeric TREM2
T2 sequence: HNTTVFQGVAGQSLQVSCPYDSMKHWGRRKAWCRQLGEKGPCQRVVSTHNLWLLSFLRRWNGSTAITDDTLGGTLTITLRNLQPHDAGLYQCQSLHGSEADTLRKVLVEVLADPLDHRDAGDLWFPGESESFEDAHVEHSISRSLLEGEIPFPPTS
Description: SPR (Biacore T200), 37 C; IgG on anti-CH1 chip, soluble monomeric TREM2. (In SPR one partner is held on a chip, and binding of the other changes the refractive index at the surface.)

The target of assay [3] is T1, human TREM2 on cells. Description: cell-based or functional assay. The source holds these as a separate data set.
The target in assay [4] is T3, soluble human TREM2 (sTREM2) (human, UniProt Q9NZC2 19-157).
T3 construct: also called soluble TREM2; TREM2 ectodomain
T3 sequence: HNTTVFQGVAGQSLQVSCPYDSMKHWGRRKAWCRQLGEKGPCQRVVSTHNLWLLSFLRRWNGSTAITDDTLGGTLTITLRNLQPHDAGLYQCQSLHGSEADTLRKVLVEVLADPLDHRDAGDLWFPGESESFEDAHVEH
Description: sandwich ELISA: test antibody coated as capture, sTREM2 from BMDM culture supernatant, biotinylated 3.17A9 as detection. An excerpt: For example, as shown in an Example 11 herein, the human TREM2 ELISA assay measured binding of antibodies to sTREM2 by coating onto plate wells the antibody to be tested as capture reagents and with biotinylated IgV-reactive monoclonal antibody 3.17A9 used as the detection reagent. Control antibody 1.16B8 was used as a positive control antibody to establish the standard for sTREM2 binding.
A human TREM2 ELISA assay was used to measure binding of more than forty antibodies to soluble TREM2 (sTREM2) as follows: test anti-hTREM2 antibodies were coated onto plate wells as capture reagents and a biotinylated IgV-reactive monoclonal antibody, 3.17A9, was used as the detection reagent. Antibody 1.16B8 was used as a control antibody to establish the standard for sTREM2 binding. Plates coated with test or control antibody were incubated with diluted culture supernatant from bone marrow-derived macrophage (BMDM) cultures from transgenic mice expressing hTREM2. sTREM2 is constitutively produced by the BMDM cultures expressing hTREM2 and shed into the culture supernatant. Measurements were recorded at 450 nm for detection and 570 nm for background. The 3.17A9/1.16B8 antibody pair was selected over reagents provided in the R&D Systems kit as the commercial reagents were not compatible with sTREM2 detection of some of the antibodies tested. […]
On the technique in general: ELISA stands for enzyme-linked immunosorbent assay.

A value given as a limit tells only on which side of the number the result lay.

B1: hPara.09.v2 hIgG1 N297G (antibody, V domains shown)
VH: EVQLVESGGGLVQPGGSLKLSCATSGFPFSNVWLHWVRQASGKGPEWVAHIKAKSDNYATYYAESVKGRFTISRDDSKNTVYLQMNSLKTEDTAVYYCTDILEYWGQGTLVTVSS
VL: DVVMTQSPLSLPVTPGEPASISCRSSRSLLTSKGITSLYWYLQKPGQSPQLLIYRMSNLASGIPDRFSGSGSGTDFTLKISRVEAEDVGVYYCAQFLVYPYTFGQGTKVEIKR
notes: also called hPara.09.H5.hIgG1.N297G
In general, Kd refers to a measure of binding affinity in units of concentration. Read a low Kd as tighter binding. A word on the koff: it is the first-order rate constant of dissociation. By kon is commonly meant the rate constant with which the complex forms. A high value points to fast association. Regarding B1, in the assay with human TREM2 on cells [1], the “EC50, average X04 plaque intensity, human iPSC-derived microglia plaque assay (FIG. 24C)” value was 320 nM; the “EC50, survival of iPSC-derived microglia (FIG. 23E)” value amounted to 65 pM; the “EC50, total Abeta plaque intensity, human iPSC-derived microglia plaque assay (FIG. 24B)” value was found to be 330 nM; the “phospho-SYK/total SYK relative to anti-gD control, iPSC-derived microglia, 1 hour” value stood at 2 fold. Further, in the assay with human TREM2 on cells [1], the “phospho-SYK/total SYK relative to anti-gD control, iPSC-derived microglia, 4 hours” value is > 10 fold. In assay [2], this molecule returned a Kd of 0.016 nM, a dissociation rate constant (koff) of 3.5e-05 s⁻¹ and an association rate constant (kon) of 2.3e+06 M⁻¹ s⁻¹. For the same molecule, in the assay with human TREM2 on cells [3], the “EC50, Jurkat NFAT luciferase reporter cells” value came out at 24.5 ng/mL and the “IC50, TREM2 shedding inhibition in Jurkat-NFAT reporter cells (sTREM2 ELISA)” value came out at 162 ng/mL. The binding result in assay [4] is “no binding”.
